Legend:
Details in all cases: 20 nM; 72 h
MCF10A [1] = assay: 5+ nucleoli phenotype percent effect (relative to siNT 0% and siKIF11 100%); higher = more cells with five or more nucleoli
Procedure: (§1)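 After 72 h, cells were fixed and stained with Hoechst and anti-fibrillarin, and nucleoli per nucleus were counted with CellProfiler. Values are plate-adjusted percent effect for the one-nucleolus and 5+ nucleoli phenotypes, normalised to siNT (0%) and to the positive controls siNOL11 or siKIF11 (100%), as the mean of biological triplicates. Percent viability is the nuclei count relative to siNT.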

MCF10A [2] = assay: percent viability (nuclei count relative to siNT); higher = more viable cells
Procedure: as §1

MCF10A [3] = assay: one-nucleolus phenotype percent effect (relative to siNT 0% and siNOL11 100%); higher = more cells with one nucleolus (ribosome biogenesis inhibition)
Procedure: as §1

| Sequence | 5+ nucleoli phenotype percent effect (MCF10A [1]) [%] | percent viability (MCF10A [2]) [%] | one-nucleolus phenotype percent effect (MCF10A [3]) [%] |
| --- | --- | --- | --- |
| CCUGGAAACACUGAGGUUGUG [hsa-miR-875-3p] | 37.4 | 155 | -26.1 |
| CUAGGAGGCCUUGGCC [hsa-miR-4266] | -14.2 | 52.6 | 7.31 |
| UCACCUGACCUCCCAUGCCUGU [hsa-miR-3622a-3p] | 33.1 | 103 | -15.8 |
| UGAGUGUUGUCUACGAGGGCA [hsa-miR-3659] | 21.3 | 59 | -0.683 |
| ACCCUAUCAAUAUUGUCUCUGC [hsa-miR-454-5p] | 45.6 | 81.2 | -29.8 |
| CAAAAACCGCAAUUACUUUUGCA [hsa-miR-548z] | -14.9 | 36 | 0.602 |
| CUGGAGUCUAGGAUUCCA [hsa-miR-4309] | -25.6 | 33.2 | 33.6 |
| CAGUUCUGCUGUUCUGACUCUAG [hsa-miR-6874-3p] | -30.6 | 28.9 | -4.11 |
| AUCUAAAUGCAGCAUGCCAGUC [hsa-miR-4799-5p] | 15 | 59.9 | -0.603 |
| GUUUGCACGGGUGGGCCUUGUCU [hsa-miR-557] | -30.1 | 47.7 | 34.6 |
| ACUGCCCUAAGUGCUCCUUCUGG [hsa-miR-18a-3p] | 4.11 | 58.7 | -2.39 |
| UGUCUCUGCUGGGGUUUCU [hsa-miR-593-3p] | -39.2 | 18.1 | 55.4 |
| GCUGAUGAUGAUGGUGCUGAAG [hsa-miR-4502] | 38.7 | 85.3 | -19.2 |
| AUGGUCACCUCCGGGACU [hsa-miR-5587-5p] | 41.6 | 60.6 | -15.8 |
| UCUACAGUGCACGUGUCUCCAGU [hsa-miR-139-5p] | -2.1 | 67.5 | -8.78 |
| AGAACUCUUGCAGUCUUAGAUGU [hsa-miR-4680-5p] | -12.8 | 72 | -11.5 |
| UGGGAAAGACAAACUCAGAGUU [hsa-miR-6733-5p] | 8.82 | 23.6 | 5.71 |
| CUUUCAGUCAGAUGUUUGCUGC [hsa-miR-30d-3p] | 59.2 | 131 | -17.5 |
| UCAGUGCAUCACAGAACUUUGU [hsa-miR-148b-3p] | 68.9 | 126 | -21.1 |
| CAGGAGGCAGUGGGCGAGCAGG [hsa-miR-4695-5p] | 14.2 | 54.7 | -5.49 |
| CACAGGCUUAGAAAAGACAGU [hsa-miR-4438] | 25.6 | 11.8 | -2.67 |
| AACUGGCCCUCAAAGUCCCGCU [hsa-miR-193b-3p] | -6.55 | 16.9 | 24.4 |
| UGCUGAGGUCCGGGCUGUGCC [hsa-miR-7160-5p] | -22.1 | 16.8 | 47.5 |

| Sequence | 5+ nucleoli phenotype percent effect (MCF10A [1]) [%] | percent viability (MCF10A [2]) [%] | one-nucleolus phenotype percent effect (MCF10A [3]) [%] |
| --- | --- | --- | --- |
| UUCAAGUAAUUCAGGAUAGGU [hsa-miR-26b-5p] | 45.6 | 149 | -8.67 |
| AAAGUGCUUCCUUUUUGAGGG [hsa-miR-520e] | 57.7 | 84.4 | -14.9 |
| GGGAUAUGAAGAAAAAU [hsa-miR-3201] | 40.5 | 59.6 | -15.6 |
| CGGGACUGUAGAGGGCAUGAGC [hsa-miR-8052] | 28.9 | 42.4 | 4.6 |
| AGAGGCUGGCCGUGAUGAAUUC [hsa-miR-485-5p] | 22.1 | 216 | -17.3 |
| CUGAAUAGCUGGGACUACAGGU [hsa-miR-5585-3p] | 16.9 | 44.1 | -12.6 |
| GUGGGAUUUCUGAGUAGCAUC [hsa-miR-5089-5p] | -4.04 | 36.5 | 3.12 |
| CAGGCAGAAGUGGGGCUGACAGG [hsa-miR-6511a-5p] | 3.66 | 69.3 | 6.88 |
| GUGAGACUUCUCUCCCUUCAG [hsa-miR-6864-3p] | -9.96 | 41.4 | 14.5 |
| UGCAGCUCUGGUGGAAAAUGGAG [hsa-miR-4660] | -12.2 | 43.5 | 1.97 |
| AGGCGCACCCGACCACAUGC [hsa-miR-6722-5p] | -18.7 | 22.4 | 26.5 |
| GAGAAAUGCUGGACUAAUCUGC [hsa-miR-5680] | 27.3 | 93.7 | -20.6 |
| CUGGAGAUAUGGAAGAGCUGUGU [hsa-miR-1270] | -41.4 | 34.1 | 38.6 |
| ACUGAUUAUCUUAACUCUCUGA [hsa-miR-3920] | 38.1 | 82 | -37.8 |
| UACUCAAAAAGCUGUCAGUCA [hsa-miR-888-5p] | 11.8 | 82.3 | -13.4 |
| GCAUUGUGCAGGGCUAUCA [hsa-miR-4289] | 7.06 | 35 | -8.06 |
| ACCAGGGCCAGCAGGGAAUGU [hsa-miR-6837-5p] | -15 | 19.9 | 33.6 |
| UGGAUGUGGAAGGAGUUAUCU [hsa-miR-4764-5p] | -8.02 | 7.49 | -0.862 |
| UGACCUUUGCCUCUCCCCUCAG [hsa-miR-6759-3p] | -31.2 | 20.7 | 51.3 |
| UUUGUGACCUGGUCCACUAACC [hsa-miR-758-3p] | -42 | 52.5 | 35.1 |
| AAUUGCACGGUAUCCAUCUGUA [hsa-miR-363-3p] | -15.8 | 63.9 | 5.76 |
| AGUGGGGUGGGACCCAGCUGUU [hsa-miR-6742-5p] | -35.4 | 21.8 | 43.2 |

Source: the supplement of paper PMC10899765
